Measurements reported in patent publication US20190119318A1.

Tests used:
[1] = target: human polyclonal IgG (Gammanorm) (human); assay: SPR; after 96-100 CIP cycles 0.5 M NaOH
[2] = target: human polyclonal IgG (Gammanorm) (human); assay: SPR; vs reference Zvar1; 0.5 M NaOH cycles
[3] = target: human polyclonal IgG (Gammanorm) (human); assay: SPR; vs reference Zvar4; 0.5 M NaOH
[4] = target: human polyclonal IgG (Gammanorm) (human); assay: SPR; after 100 CIP cycles 0.5 M NaOH
[5] = target: human polyclonal IgG (Gammanorm) (human); assay: SPR; vs reference Zvar4; 1 M NaOH
[6] = target: human polyclonal IgG (Gammanorm) (human); assay: SPR; after 100 CIP cycles 1 M NaOH
[7] = target: human polyclonal IgG (Gammanorm) (human); assay: SPR; after 200 CIP cycles 0.5 M NaOH
[8] = target: human polyclonal IgG (Gammanorm) (human); assay: SPR; after 300 CIP cycles 0.5 M NaOH
[9] = target: IgG1 monoclonal antibody (probe molecule); assay: SPR (Biacore), ligand on CM5 chip, IgG1 mAb as probe
[10] = target: human polyclonal IgG (Gammanorm) (human); assay: SPR; vs reference Zvar2; 0.5 M NaOH

Row | capacity after 96-100 cycles [1] | capacity relative to reference [2] | Substance | other results
1 | 53% | 1.04 | Zvar(N11E,Q32E,K50R)1 (designed binder) | 
2 | 59% | 1.31 | Zvar(N11K,H18K,D37E,A42R,N43A,L44I)1 (designed binder) | 
3 | 67% | 1.46 | Zvar(N11K,H18K,S33K,D37E,A42R,N43A,L44I,K50R,L51Y)1 (designed binder) | 
4 | 56% | 1.19 | Zvar(Q9A,N11E,A29D,Q40V,A42K,N43A,L44I)1 (designed binder) | 
5 | 57% | 1.21 | Zvar(Q9A,N11E,A29E,Q40V,A42K,N43A,L44I)1 (designed binder) | 
6 | 62% | 1.35 | Zvar(Q9A,N11E,A29F,Q40V,A42K,N43A,L44I)1 (designed binder) | 
7 | 57% | 1.21 | Zvar(Q9A,N11E,A29H,Q40V,A42K,N43A,L44I)1 (designed binder) | 
8 | 58% | 1.23 | Zvar(Q9A,N11E,A29I,Q40V,A42K,N43A,L44I)1 (designed binder) | 
9 | 59% | 1.28 | Zvar(Q9A,N11E,A29K,Q40V,A42K,N43A,L44I)1 (designed binder) | 
10 | 61% | 1.33 | Zvar(Q9A,N11E,A29L,Q40V,A42K,N43A,L44I)1 (designed binder) | 
11 | 62% | 1.32 | Zvar(Q9A,N11E,A29M,Q40V,A42K,N43A,L44I)1 (designed binder) | 
12 | 61% | 1.3 | Zvar(Q9A,N11E,A29N,Q40V,A42K,N43A,L44I)1 (designed binder) | 
13 | 60% | 1.28 | Zvar(Q9A,N11E,A29Q,Q40V,A42K,N43A,L44I)1 (designed binder) | 
14 | 58% | 1.26 | Zvar(Q9A,N11E,A29R,Q40V,A42K,N43A,L44I)1 (designed binder) | 
15 | 66% | 1.38 | Zvar(Q9A,N11E,A29S,Q40V,A42K,N43A,L44I)1 (designed binder) | 
16 | 60% | 1.28 | Zvar(Q9A,N11E,A29T,Q40V,A42K,N43A,L44I)1 (designed binder) | 
17 | 62% | 1.32 | Zvar(Q9A,N11E,A29V,Q40V,A42K,N43A,L44I)1 (designed binder) | 
18 | 60% | 1.3 | Zvar(Q9A,N11E,A29W,Q40V,A42K,N43A,L44I)1 (designed binder) | 
19 | 61% | 1.27 | Zvar(Q9A,N11E,A29Y,Q40V,A42K,N43A,L44I)1 (designed binder) | 
20 |  |  | Zvar(Q9A,N11E,D37E,Q40V,A42K,N43A,L44I)4 (designed binder) | capacity relative to ref. 100 cycles [3]: 1.13; remaining capacity 100 cycles [4]: 81%
21 |  |  | Zvar(Q9A,N11E,D37E,Q40V,A42R,N43A,L44I)4 (designed binder) | capacity relative to ref. 100 cycles [3]: 1.17; remaining capacity 100 cycles [4]: 84%
22 |  |  | Zvar(Q9A,N11E,N28A,N43A)4 (designed binder) | capacity relative to ref. 100 cycles [5]: 2.04; remaining capacity 100 cycles [6]: 55%; capacity relative to ref. 100 cycles [3]: 1.19; capacity relative to ref. 200 cycles [3]: 1.72; capacity relative to ref. 300 cycles [3]: 2.62; remaining capacity 100 cycles [4]: 80%; remaining capacity 200 cycles [7]: 62%; remaining capacity 300 cycles [8]: 42%
23 | 65% | 1.35 | Zvar(Q9A,N11E,N28A,Q40V,A42K,N43A,L44I)1 (designed binder) | 
24 |  |  | Zvar(Q9A,N11E,N28A,Q40V,A42K,N43A,L44I)4 (designed binder) | capacity relative to ref. 100 cycles [3]: 1.24; remaining capacity 100 cycles [4]: 84%
25 |  |  | Zvar(Q9A,N11E,N43A)4 (designed binder) | capacity relative to ref. 100 cycles [3]: 1.21; capacity relative to ref. 200 cycles [3]: 1.72; capacity relative to ref. 300 cycles [3]: 2.56; remaining capacity 100 cycles [4]: 81%; remaining capacity 200 cycles [7]: 62%; remaining capacity 300 cycles [8]: 41%

Row | capacity after 96-100 cycles [1] | capacity relative to reference [2] | Substance | other results
26 | 66% | 1.4 | Zvar(Q9A,N11E,Q40V,A42K,N43A,L44I)1 (designed binder) | Kd [9]: 1.07 nM; koff [9]: 0.000437 s⁻¹; kon [9]: 410000 M⁻¹ s⁻¹
27 |  |  | Zvar(Q9A,N11E,Q40V,A42K,N43A,L44I)2 with A56, P57 and K58 in linker deleted (designed binder) | capacity relative to ref. 100 cycles [10]: 1.26; remaining capacity 100 cycles [4]: 68%
28 |  |  | Zvar(Q9A,N11E,Q40V,A42K,N43A,L44I)2 with D2, A3 and K4 in linker deleted (designed binder) | capacity relative to ref. 100 cycles [10]: 1.27; remaining capacity 100 cycles [4]: 70%
29 |  |  | Zvar(Q9A,N11E,Q40V,A42K,N43A,L44I)2 with K4, F5, D6, K7 and E8 in linker deleted (designed binder) | capacity relative to ref. 100 cycles [10]: 1.3; remaining capacity 100 cycles [4]: 70%
30 |  |  | Zvar(Q9A,N11E,Q40V,A42K,N43A,L44I)2 with K58, V1 and D2 in linker deleted (designed binder) | capacity relative to ref. 100 cycles [10]: 1.38; remaining capacity 100 cycles [4]: 76%
31 |  |  | Zvar(Q9A,N11E,Q40V,A42K,N43A,L44I)2 with P57, K58, V1, D2 and A3 in linker deleted (designed binder) | capacity relative to ref. 100 cycles [10]: 1.35; remaining capacity 100 cycles [4]: 74%
32 |  |  | Zvar(Q9A,N11E,Q40V,A42K,N43A,L44I)2 with V1, D2 and A3 in linker deleted (designed binder) | capacity relative to ref. 100 cycles [10]: 1.39; remaining capacity 100 cycles [4]: 75%
33 |  |  | Zvar(Q9A,N11E,Q40V,A42K,N43A,L44I)2 with V1, D2, A3, K4, F5, D6, K7 and E8 in linker deleted (designed binder) | capacity relative to ref. 100 cycles [10]: 1.13; remaining capacity 100 cycles [4]: 62%
34 |  |  | Zvar(Q9A,N11E,Q40V,A42K,N43A,L44I)2 with YEDG inserted in linker between K58 and V1 (designed binder) | capacity relative to ref. 100 cycles [10]: 1.31; remaining capacity 100 cycles [4]: 72%
35 | 58% | 1.26 | Zvar(Q9A,N11E,Q40V,A42K,N43A,L44I,D53F)1 (designed binder) | 
36 | 65% | 1.41 | Zvar(Q9A,N11E,Q40V,A42K,N43A,L44I,D53K)1 (designed binder) | 
37 | 60% | 1.3 | Zvar(Q9A,N11E,Q40V,A42K,N43A,L44I,D53R)1 (designed binder) | 
38 | 62% | 1.35 | Zvar(Q9A,N11E,Q40V,A42K,N43A,L44I,D53W)1 (designed binder) | 
39 | 59% | 1.28 | Zvar(Q9A,N11E,Q40V,A42K,N43A,L44I,D53Y)1 (designed binder) | 
40 |  |  | Zvar(Q9A,N11E,Q40V,A42K,N43E,L44I)4 (designed binder) | capacity relative to ref. 100 cycles [5]: 2; remaining capacity 100 cycles [6]: 54%; capacity relative to ref. 100 cycles [3]: 1.25; capacity relative to ref. 200 cycles [3]: 1.81; capacity relative to ref. 300 cycles [3]: 3; remaining capacity 100 cycles [4]: 84%; remaining capacity 200 cycles [7]: 65%; remaining capacity 300 cycles [8]: 48%
41 | 55% | 1.2 | Zvar(Q9A,N11E,Q40V,A42K,N43del,L44I)1 (designed binder) | 
42 | 57% | 1.24 | Zvar(Q9A,N11E,Q40V,A42del,N43A,L44I)1 (designed binder) | 
43 | 59% | 1.28 | Zvar(Q9A,N11E,Q40del,A42K,N43A,L44I)1 (designed binder) | 
44 | 63% | 1.4 | Zvar(Q9A,N11K,H18K,D37E,A42R,N43A,L44I)1 (designed binder) | 
45 | 67% | 1.49 | Zvar(Q9A,N11K,H18K,D37E,A42R,N43A,L44I,K50R)1 (designed binder) | 
46 | 59% | 1.28 | Zvar(Q9A,N11K,H18K,S33K,D37E,A42R,N43A,L44I,K50R,L51Y)1 (designed binder) | 
47 | 60% | 1.3 | Zvar(Q9del,N11E,Q40V,A42K,N43A,L44I)1 (designed binder) | 
48 |  |  | parental B domain of Staphylococcus Protein A (from UniProt A0A0H3K686 212-269) | reference capacity after 96-100 cycles [1]: 35%
49 |  |  | parental C domain of Staphylococcus Protein A (from UniProt A0A0H3K686 270-327) | reference capacity after 96-100 cycles [1]: 49%
